# In patent publication US20240034813A1 (Janssen / Centocor, published 2024):
# B1: amivantamab (bispecific antibody, human IgG1, kappa)
# heavy 1: not shown
# light 1: not shown
# heavy 2: not shown
# light 2: DIQMTQSPSSVSASVGDRVTITCRASQGISNWLAWFQHKPGKAPKLLIYAASSLLSGVPSRFSGSGSGTDFTLTISSLQPEDFATYYCQQANSFPITFGQGTRLEIKRTVAAPSVFIFPPSDEQLKSGTASVVCLLNNFYPREAKVQWKVDNALQSGNSQESVTEQDSKDSTYSLSSTLTLSKADYEKHKVYACEVTHQGLSSPVTKSFNRGEC
# notes: The samples tested were high concentration (160 mg/mL) formulations, fresh or stored or stressed; also called JNJ-61186372; bispecific EGFR-cMet antibody
# Columns and labels:
# [1] = molecular target: T1, recombinant cMet/HGFR with c-terminal His-tag, Cy5-labeled (UniProt P08581 25-932, limits assumed, Cy5 label (reacted with Cy5 Mono NHS Ester; sites not stated)); assay: competitive TR-FRET (Eu-amivantamab/Cy5-c-MET), EC50 ratio vs Reference Material; Ex. 12 drug product with rHuPH20, 0 months, 40 C table
# T1 construct: Commercial protein; also called Cy5-c-MET; Cy5-labeled c-MET antigen; not shown: C-terminal His-tag
# Description: (§1) In this procedure, varying concentrations of unlabeled bispecific EGFR-cMet antibody sample compete with donor fluorophore (Europium (Eu) chelate) labeled bispecific EGFR-cMet antibody for binding to an acceptor fluorophore (Cy5)-labeled c-MET antigen. Excitation of the donor fluorophore results in a transfer of energy to the bound acceptor fluorophore (FRET process). The resultant FRET is detected by emission of light at 665 nm using a microplate reader capable of measuring time-resolved fluorescence. Sample dose response curves are compared to the Reference Material (RM).
# (§2) c-MET Binding Materials and Methods. Certified commercial cMet, a recombinant cMet/HGFR with c-terminal His-tag is reacted with certified commercial Cy5 Mono NHS Ester to produce Cy5-labeled c-MET. Validated bispecific EGFR-cMet antibody is reacted with certified commercial Europium (Eu) chelate to produce Eu labeled bispecific EGFR-cMet antibody. […] Fluorescence is then measured by spectrophotometry at 665 nm, plotted against antibody concentration and analyzed by a four-parameter logistic model. The antibody concentration required to obtain half of the maximum fluorescence response (EC50) is determined for RM, assay control and samples. The potencies of assay control and samples are calculated based on the ratio of the sample (or control) and RM EC50 values and reported as a percentage activity relative to the RM.
# [2] = molecular target: T2, recombinant human EGFR/ErbB1/HER1 with C-terminal His tag, Cy5-labeled (human, UniProt P00533 25-645, Cy5 label (reacted with Cy5 Mono NHS Ester; sites not stated)); assay: competitive TR-FRET (Eu-amivantamab/Cy5-EGFR), EC50 ratio vs Reference Material; Ex. 3 acetate formulation, 6 months at 25 C, untreated control
# T2 construct: Commercial protein; also called Cy5-EGFR; Cy5-labeled EGFR antigen; not shown: C-terminal His tag
# Description: (§3) In this procedure, varying concentrations of unlabeled bispecific EGFR-cMet antibody sample compete with donor fluorophore (Europium (Eu) chelate) labeled bispecific EGFR-cMet antibody for binding to an acceptor fluorophore (Cy5)-labeled EGFR antigen. Excitation of the donor fluorophore results in a transfer of energy to the bound acceptor fluorophore (FRET process). The resultant FRET is detected by emission of light at 665 nm using a microplate reader capable of measuring time-resolved fluorescence. Sample dose response curves are compared to the RM.
# as §2, with “EGFR” for “c-MET”, “EGFR,” for “cMet,”, “human EGFR/ErbB1/HER1” for “cMet/HGFR”, “C-terminal His tag” for “c-terminal His-tag”, “EGFR.” for “c-MET.”, “Eu-labeled” for “Eu labeled”
# [3] = molecular target: T1, recombinant cMet/HGFR with c-terminal …; assay: competitive TR-FRET (Eu-amivantamab/Cy5-c-MET), EC50 ratio vs Reference Material; Ex. 11 drug product, 0 months, 40 C table
# Description: as §1, §2
# [4] = molecular target: T2, recombinant human EGFR/ErbB1/HER1 with …; assay: competitive TR-FRET (Eu-amivantamab/Cy5-EGFR), EC50 ratio vs Reference Material; Ex. 11 drug product, 1 month at 40 C
# Description: as §3
# as §2, with “EGFR” for “c-MET”, “EGFR,” for “cMet,”, “human EGFR/ErbB1/HER1” for “cMet/HGFR”, “C-terminal His tag” for “c-terminal His-tag”, “EGFR.” for “c-MET.”, “Eu-labeled” for “Eu labeled”
# [5] = molecular target: T1, recombinant cMet/HGFR with c-terminal …; assay: competitive TR-FRET (Eu-amivantamab/Cy5-c-MET), EC50 ratio vs Reference Material; Ex. 2 Formulation 2 (50 mM histidine), 3 months at 5 C
# Description: as §1, §2
# [6] = molecular target: T1, recombinant cMet/HGFR with c-terminal …; assay: competitive TR-FRET (Eu-amivantamab/Cy5-c-MET), EC50 ratio vs Reference Material; Ex. 2 Formulation 3 (acetate), T0, 40 C table
# Description: as §1, §2
# [7] = molecular target: T1, recombinant cMet/HGFR with c-terminal …; assay: competitive TR-FRET (Eu-amivantamab/Cy5-c-MET), EC50 ratio vs Reference Material; Ex. 2 Formulation 3 (acetate), 3 months at 5 C
# Description: as §1, §2
# [8] = molecular target: T2, recombinant human EGFR/ErbB1/HER1 with …; assay: competitive TR-FRET (Eu-amivantamab/Cy5-EGFR), EC50 ratio vs Reference Material; Ex. 12 drug product with rHuPH20, 0 months, 40 C table
# Description: as §3
# as §2, with “EGFR” for “c-MET”, “EGFR,” for “cMet,”, “human EGFR/ErbB1/HER1” for “cMet/HGFR”, “C-terminal His tag” for “c-terminal His-tag”, “EGFR.” for “c-MET.”, “Eu-labeled” for “Eu labeled”
binder,measurement,setting,value
B1,cMET Binding activity relative to Reference Material (%),[1],91%
same,EGFR Binding % activity relative to RM,[2],83%
same,cMET Binding activity relative to Reference Material (%),[3],85%
same,EGFR Binding activity relative to Reference Material (%),[4],39%
same,cMET Binding % activity relative to RM,[5],98%
same,cMET Binding % activity relative to RM,[6],94%
same,cMET Binding % activity relative to RM,[7],109%
same,EGFR Binding activity relative to Reference Material (%),[8],92%
